# Measurements published in US20250186623A1, “EXPRESSION SYSTEM FOR THE TREATMENT OF CANCER” (FUNDACION PARA LA INVESTIGACION MEDICA APLICADA, priority 2022, published 2025).
# B1: ISREx4-promoter: 4 ISRE motifs separated by 20 nucleotides according to SEQ ID NO: 12 (nucleic acid)
# DNA: ATCTCTGCGATGAACCTCACAGTTTCGCTTTCTATCTCTGCGATGAACCTCACAGTTTCGCTTTCTATCTCTGCGATGAACCTCACAGTTTCGCTTTCTATCTCTGCGATGAACCTCACAGTTTCGCTTTCTGTGCCTCTTATGATCTGGATCTCGAGCCATGGTCGAGGCCTGTAGGCGTGTACGGTGGGAGGCTTATATAAGCAGAGCTC
# modifications: misc_feature 1..212 ISREx4
# B2: CXCL10-promoter: CXCL10-promoter according to SEQ ID NO: 24 (nucleic acid, listed as Mus musculus)
# DNA: TCTAACTGTTCACTAAGTTGTATAGACTTTGGATCTGGCTAAATTTGGCGTGTGATTTTTTTTTAAAGTTTATTCCAAGTATTTTATAATAAAGCATATGAAGTAAAAAGCAAAAATAAACAGTGTAAACACAACAAATGTAAAAACCATGGTTAGAACCTGACTTAGATATCAGTTCTGTGTTTTATTTATGAGAGAAGGAAGATGAGAATTAAAGCCATTTCCAGACTTATTCTGCAAGGCACTGCATCTGATTTCTCAAACAGCTCACGCTTTGGAAAGTGAAACTTACCTCACTCGTTAAAAATTAAAAGGAGCACAAGAGGGGAGAGGGAAATTCCAAGTTCATGGGTCACAATAAACACAAGCAATGCCCTCGGTTTACAGGGGACTTCCCTCGGGTTGCGGAGCCTTGCTGAGTCATCTCCAAAGTCAGCCAATCAGGACTCAGGGAGGGAAACTCTTTGCAGATAAATACTCCTCAGCAGCCGGCACTCGAGAAGCGCTTCATCCACCGCTGAGAGACATCCCGAGCCAACCTTCCGGAAGCCTCCCCATCAGCACC
# modifications: misc_feature 1..565 CXCL10-promoter
# B3: IFN-β-promoter: full length IFN-β-promoter according to SEQ ID NO: 25 (nucleic acid, listed as Mus musculus)
# DNA: CCAGGATGTGGGGTTCTCTCCCAAAGGGAGCTATGGCCCATTGATGTGCCATTTCTCTTATAGTACACTATTGTAAGCCCCCTGGGAGCTCACAGAGACCCTCTCCCACCATCCCACTATTTCAAAGGGCAGCAGCTGTGCCATCCTTTCAGGATGAGCAGCTACTCTGCCTGGCTTTTCAGTGGACACTTTGGCTGTTTGAGAGTTCTTTTATCTTCAGGGCTGTCTCCTTTCTGTTCTTCTCTCCTGGATATTTCTCTTCCTTTGCTCCAGCAATTGGTGAAACTGTACAAGATTTTATAAATCCTTAGTTTGTATATATTTTAACCCAGTACATAGCATATAAAATAGCCAGGAGCTTGAATAAAATGAATATTAGAAGCTGTTAGAATAAGAGAAAATGACAGAGGAAAACTGAAAGGGAGAACTGAAAGTGGGAAATTCCTCTGAGGCAGAAAGGACCATCCCTTATAAATAGCACAGGCCATGAAGGAAGATCATTCTCACTGCAGCCTTTGACAGCCTTTGCCTCATCTTGCAGGTAGCAGCCGACACCAGCCTGGCTTCCATC
# modifications: misc_feature 1..571 IFNb1-promoter
# B4: short STAT-promoter: 4 STAT motifs separated by 6 nucleotides according to SEQ ID NO: 26 (nucleic acid)
# DNA: ATCTCTGCGATGAACCTCACTTCGCTAGAAATCTCTGCGATGAACCTCACTTCGCTAGAAATATCTCTGCGATGAACCTCACTTCGCTAGAAATCTCTGCGATGAACCTCACTTCGCTAGAAGTGCCTCTTATGATCTGGATCTCGAGCCATGGTCGAGGCCTGTAGGCGTGTACGGTGGGAGGCTTATATAAGCAGAGCTC
# modifications: misc_feature 1..202 STATx4
# B5: short IFN-β A promoter: modification of the IFN-β promoter according to SEQ ID NO: 18 (nucleic acid)
# DNA: CAGGAGCTTGAATAAAATGAATATTAGAAGCTGTTAGAATAAGAGAAAATGACAGAGGAAAACTGAAAGGGAGAACTGAAAGTGGGAAATTCCTCTGAGGCAGAAAGGACCATCCCTTATAAATAGCACAGGCCATGAAGGAAGATCATTCTCACTGCAGCCTTTGACAGCCTTTGCCTCATCTTGCAGGTAGCAGCCGACACCAGCCTGGCTTCCATC
# modifications: misc_feature 1..219 short IFNb A-promoter
# B6: IFN-γ: exogenously added interferon, 1,000 IU (protein, UniProt P01579 24-161, looked up)
# Interferon gamma: QDPYVKEAENLKKYFNAGHSDVADNGTLFLGILKNWKEESDRKIMQSQIVSFYFKLFKNFKDDQSIQKSVETIKEDMNVKFFNSNKKKRDDFEKLTNYSVTDLNVQRKAIHELIQVMAELSPAAKTGKRKRSQMLFRG
# B7: CXCL9-promoter: CXCL9-promoter according to SEQ ID NO: 23 (nucleic acid, listed as Mus musculus)
# DNA: GACACAGACATCTCGTGAAACATCTGGAAAAGGTAGCAGGGAACGGGACAGCAGTAGCTTATGCAACTAATCTAGCAATTACAATGATAGGAAACTGTAGCCACGGTGAGACGAAATGGATTTACCCTCAACAAATTAAGAAGCTTTGACTTGTGAGGAAAGGCAGTTTGAGTCGCCATATAGTGTCATGTCCCACGTGGGAAGTACATCTCCAACCTTCATTGTACAACATTAATATAGTCATTGTATAATCTATTCCACATCCAGGTAGCAACTTTGCCTGGGGGTGGTTTCACATCCCTTACTATAAACTCCCCGTTTATGTGAAATGGAAGTAGAACATGCAGAAATTCCCTGGGATCTGAGAGTAGGGTTTTCCCCAGGACGATCAATTTGTGGTTAGTTTAGTTCTTCTAGGTCAGCTGAGGAGACCAGCCAATCAGAGACGGGAAGGAAAAGGGATTTCCTAAATAAATATGATCCCCAAGAACATGCTCTCTAAAGACATTCTCGGACTTCACTCCAACACAGTGACTCAATAGAACTCAGCTCTGCC
# modifications: misc_feature 1..556 CXCL9-promoter
# Assays:
# [1] = tested on: B16 cells transduced with AAV8-ISREx4-LucmiR122T; assay: Radiation and IFN signaling on activation of the ISREx4 promoter (luciferase); type: cell-based, murine
# Source text: The ISREx4 promoter responds to interferon downstream signaling.
# [2] = tested on: human HEK293T cells stably expressing hSTINGmut; assay: Luciferase activity under synthetic promoters (pGL3-basic plasmids); type: cell-based; details: for luciferase activity / inducibility upon DMXAA: DMXAA 50 μg/mL, 48 h; for leakage in the absence of DMXAA: vehicle
# Source text: (§1) As described above, the specificity of the promoters used in the previous experiments was somewhat poor. […] In order to achieve this, synthetic promoters have been generated.
# (§2) Seven different promoters were generated, namely short STATx4 (4 STAT motifs separated by 6 nucleotides according to SEQ ID NO: 26), IRSF3×4 (4 IRSF3 motifs separated by 20 nucleotides according to SEQ ID NO: 27), short IRSF3×4 (4 IRSF3 motifs separated by 6 nucleotides according to SEQ ID NO: 28), ISREx4 (4 ISRE motifs separated by 20 nucleotides according to SEQ ID NO: 12), short ISREx4 (4 ISRE motifs separated by 6 nucleotides according to SEQ ID NO: 13), NFκBx4 (4 NFκB motifs separated by 20 nucleotides according to SEQ ID NO: 29) and short NFκBx4 (4 NFκB motifs separated by 6 nucleotides according to SEQ ID NO: 30). […] In addition, a plasmid containing the luciferase sequence under the control of the murine IFN-β-promoter (mIFN-β) and a plasmid containing the luciferase sequence under the control of CXCL10-promoter were used as controls. Either MC38 cells or human HEK293T cells, both which stably expressed hSTINGmut as described above (example 1), were transfected with the indicated plasmids using Lipofectamine3000 according to the manufacturers protocol, whereas a negative control was mock-transfected (Basic).
# [3] = tested on: MC38 cell lines stably expressing hSTINGmut; assay: scIL-12 mRNA (qPCR) and secreted protein (ELISA) under STING-activity dependent promoters; type: cell-based, murine; details: for scIL-12 mRNA or protein expression upon DMXAA treatment: DMXAA 50 μg/mL
# Source text: The CXCL9-promoter and the CXCL10-promoter from experiment 2, and a full length IFN-β-promoter (IFN-β according to SEQ ID NO: 25) were used for the following experiment. To this end, lentiviral vectors encoding murine scIL-12 under the control of these three different promoters were constructed. […] After the indicated time points, cells were harvested. The cell lysate was used to measure scIL-12 mRNA expression by qPCR as described before (example 1, experiment 1), whereas the supernatant was used to measure secreted scIL-12 protein in NUNC MaxiSorp flat-bottom 96-well plates using an ELISA assay kit (OptEIA, Mouse IL-12 (p70), BD Biosciences, San Diego, CA USA), following manufacturer's instructions.
# [4] = tested on: MC38 cell lines stably expressing hSTINGmut; assay: Luciferase activity under chemokine promoters; type: cell-based, murine; details: for luciferase activity upon DMXAA administration: DMXAA 50 μg/mL, 3 or 6 h; for luciferase activity in the absence of DMXAA (leaky expression): vehicle
# Source text: Therefore, the objective of this experiment was to examine the specificity of these promoters in their response to DMXAA-induced STING activity.
# The CXCL9-promoter (CXCL9 according to SEQ ID NO: 23) and the CXCL10-promoter (CXCL10 according to SEQ ID NO: 24) were used for the following experiment. To this end, lentiviral vectors encoding luciferase under the control of these two different promoters were constructed. […] In addition, the lentiviral vectors encoding the short IFN-β A promoter, the short IFN-β B promoter, the short IFN-β C promoter described in experiment 1 were used as a comparison. […] After another 3 or 6 h, cells were harvested and luciferase activity measured as described in experiment 1.
# [5] = tested on: MC38 cells stably expressing hSTINGmut; assay: Luciferase activity under synthetic promoters (pGL3-basic plasmids); type: cell-based, murine; details: DMXAA 50 μg/mL, 48 h
# Source text: as §1, §2
# [6] = tested on: MC38 cell lines stably expressing hSTINGmut; assay: Luciferase activity under modified IFN-β promoters; type: cell-based, murine
# Source text: Therefore, the objective of this experiment was to examine the specificity of different modified IFN-β promoters in their response to DMXAA-induced STING activity.
# To this end, five different modifications of the IFN-β promoter (short IFN-β A according to SEQ ID NO: 18, short IFN-β B according to SEQ ID NO: 19, short IFN-β C according to SEQ ID NO: 20, short IFN-β D according to SEQ ID NO: 21, short IFN-β E according to SEQ ID NO: 22) were designed. Lentiviral vectors encoding luciferase under the control of these five different promoters were constructed. […] After another 3 h (FIG. 3A) or 3 and 6 h (FIGS. 3B, 3C, 3D) or 6 h (FIGS. 3E, 3F, 3G and 3H), cells were homogenized in 50 μL of Passive Lysis Buffer (Promega) and frozen in dry ice. After 3 cycles of thaw-vortex-freeze to ensure lysis, cells were spun at 12000 g for 2 min at 4° C. 20 μL were added to a luminometer 96-well plate and luciferase activity was determined using the respective substrates D-Luciferin and Coelenterazine.
# [7] = 1,000 IU interferon alone (0 Gy)
# [8] = 1,000 IU interferon together with radiation (8 Gy)
molecule,measurement,setting,value
IFN-α,luciferase activity,[1]; [7],significantly increased luciferase activity
same,luciferase activity,[1]; [8],induced luciferase activity dramatically
B1,luciferase activity / inducibility upon DMXAA,[2],highest inducibility
same,leakage in the absence of DMXAA,[2],undetectable leakage
B2,scIL-12 mRNA or protein expression upon DMXAA treatment,[3],highly upregulated
same,scIL-12 production in the absence of DMXAA (leakage),[3]; vehicle,significant leakage
same,luciferase activity upon DMXAA administration,[4],significantly higher luciferase activities
same,luciferase activity in the absence of DMXAA (leaky expression),[4],significant luciferase activity
same,luciferase activity / inducibility upon DMXAA,[2],highest inducibility
same,leakage in the absence of DMXAA,[2],considerable leakage
B3,scIL-12 mRNA or protein expression upon DMXAA treatment,[3],poor
B4,luciferase activity / inducibility upon DMXAA,[5],poor inducibility
B5,luciferase activity upon DMXAA treatment,"[6]; DMXAA 50 μg/mL, 3 h",highest luciferase activity
same,luciferase activity in the absence of DMXAA (leaky expression),[6]; vehicle,significant luciferase activity
B6,luciferase activity,[1]; [7],significantly increased luciferase activity
same,luciferase activity,[1]; [8],induced luciferase activity dramatically
B7,scIL-12 mRNA or protein expression upon DMXAA treatment,[3],poor
same,luciferase activity upon DMXAA administration,[4],significantly higher luciferase activities
same,luciferase activity in the absence of DMXAA (leaky expression),[4],significant luciferase activity
